According to article PMC8487046:

Tests used:
[1] = molecular target: full‐length SREC‐II at the surface of stably transfected CHO cells (UniProt Q96GP6); test: flow cytometry on cells; SREC-II-overexpressing CHO cells against nontransfected CHO cells, on ice, PBS with 3% BSA; C1q 80 µg/mL (40 min, detected with anti-C1q and Cy-3 anti-mouse antibodies); Alexa Fluor 488-MalBSA or Alexa Fluor 568-CRT at 1, 5 and 10 µg/mL (30 min); MFI ratio
[2] = molecular target: acetylated BSA (AcBSA) (bovine (from the name BSA)) (UniProt P02769); test: SPR; AcBSA immobilized (900 RU, CM5, amine coupling; BSA as reference surface), serially diluted SREC-II(44-442) or SR-F1(20-421) injected; TBS-Ca-P; 20 µL/min; 25 °C; global fit, 1:1 Langmuir model; apparent KD

Sequence of SREC‐II(44‐442), extracellular domain of scavenger receptor expressed by endothelial cells II (Q96GP6 other isoform, or with tags, fused parts or gaps): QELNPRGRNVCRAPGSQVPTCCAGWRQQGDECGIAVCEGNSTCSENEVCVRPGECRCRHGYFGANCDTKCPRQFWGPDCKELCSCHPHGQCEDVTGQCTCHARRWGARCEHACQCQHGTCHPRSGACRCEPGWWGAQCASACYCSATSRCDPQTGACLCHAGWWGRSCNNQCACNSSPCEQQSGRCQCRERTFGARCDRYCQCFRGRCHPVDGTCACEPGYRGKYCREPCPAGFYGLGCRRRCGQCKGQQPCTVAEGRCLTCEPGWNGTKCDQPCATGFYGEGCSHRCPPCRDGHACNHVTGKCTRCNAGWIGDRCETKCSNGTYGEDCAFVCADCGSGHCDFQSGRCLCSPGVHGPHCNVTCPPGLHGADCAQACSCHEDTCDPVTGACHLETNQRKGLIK
Sequence of full‐length SREC‐II at the surface of stably transfected CHO cells (Q96GP6 44-871): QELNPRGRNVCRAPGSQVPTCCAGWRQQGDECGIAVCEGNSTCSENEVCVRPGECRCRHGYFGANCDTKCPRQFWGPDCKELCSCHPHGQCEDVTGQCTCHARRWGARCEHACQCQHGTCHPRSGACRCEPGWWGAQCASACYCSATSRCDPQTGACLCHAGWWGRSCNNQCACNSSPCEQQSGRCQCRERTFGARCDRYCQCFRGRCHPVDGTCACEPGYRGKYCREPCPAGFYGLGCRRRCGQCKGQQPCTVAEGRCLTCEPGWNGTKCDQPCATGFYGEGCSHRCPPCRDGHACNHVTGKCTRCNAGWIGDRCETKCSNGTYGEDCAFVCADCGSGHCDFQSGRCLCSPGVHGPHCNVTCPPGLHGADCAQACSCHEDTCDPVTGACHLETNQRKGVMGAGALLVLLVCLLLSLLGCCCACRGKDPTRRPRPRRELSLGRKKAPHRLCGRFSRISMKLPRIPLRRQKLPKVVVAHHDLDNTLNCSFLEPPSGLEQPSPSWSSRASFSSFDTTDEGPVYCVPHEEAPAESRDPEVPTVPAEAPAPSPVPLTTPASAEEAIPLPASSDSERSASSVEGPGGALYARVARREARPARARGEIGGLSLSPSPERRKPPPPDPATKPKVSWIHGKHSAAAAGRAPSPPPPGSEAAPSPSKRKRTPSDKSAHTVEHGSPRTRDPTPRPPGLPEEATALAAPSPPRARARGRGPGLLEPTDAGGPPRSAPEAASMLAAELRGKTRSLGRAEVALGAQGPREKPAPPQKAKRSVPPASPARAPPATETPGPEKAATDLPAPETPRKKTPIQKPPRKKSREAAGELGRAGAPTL
Sequence of Alexa Fluor 488‐labelled MalBSA (P02769 25-607): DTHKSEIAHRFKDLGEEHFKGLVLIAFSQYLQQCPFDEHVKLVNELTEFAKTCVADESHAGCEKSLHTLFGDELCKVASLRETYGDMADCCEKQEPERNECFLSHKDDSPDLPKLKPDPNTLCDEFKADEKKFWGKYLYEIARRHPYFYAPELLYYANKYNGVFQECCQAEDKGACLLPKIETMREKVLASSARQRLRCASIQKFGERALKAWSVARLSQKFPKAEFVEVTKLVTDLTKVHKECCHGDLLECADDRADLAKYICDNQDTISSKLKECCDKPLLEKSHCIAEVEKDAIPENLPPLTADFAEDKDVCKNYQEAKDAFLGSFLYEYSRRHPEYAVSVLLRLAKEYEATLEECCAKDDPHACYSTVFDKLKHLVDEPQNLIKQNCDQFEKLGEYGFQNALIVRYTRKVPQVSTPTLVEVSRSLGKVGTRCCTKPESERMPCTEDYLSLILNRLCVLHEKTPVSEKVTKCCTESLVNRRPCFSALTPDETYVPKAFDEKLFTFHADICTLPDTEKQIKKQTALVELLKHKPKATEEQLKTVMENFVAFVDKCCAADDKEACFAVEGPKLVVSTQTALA

increase in binding compared with nontransfected CHO cells [1]	Kd [2]	koff [2]	kon [2]	Substance
40 to 50%	–	–	–	Alexa Fluor 488‐labelled MalBSA (from UniProt P02769 25-607)
–	200 nM	0.00015 s⁻¹	7800 M⁻¹ s⁻¹	SREC‐II(44‐442), extracellular domain of scavenger receptor expressed by endothelial cells II (from UniProt Q96GP6 44-442) (domain or fragment)
